# Patent US6384189 (UAB RESEARCH FOUNDATION, dated 2002)
# Target: recombinant small latent TGF-β
# Experiment: cell-based or functional assay
row,Binder,Fold Activation of Latent TGF-β over Baseline (soft agar NRK colony formation) [fold over baseline]
1,KRFK [KRFK (SEQ ID NO:5)],2
2,KRFKQDGGWSHWSPWSS [KRFKQDGGWSHWSPWSS (SEQ ID NO:15)],2
3,KRFKQDGGWSHWSP [KRFKQDGGWSHWSP (SEQ ID NO:14)],2.3
4,KRFKQDGGWSHW [KRFKQDGGWSHW (SEQ ID NO:16)],1.9
5,KRFKQDGGWWSP [KRFKQDGGWWSP (SEQ ID NO:17)],2.1
6,KRFKQDGG [KRFKQDGG (SEQ ID NO:9)],2.1

# Target: recombinant small latent TGF-β
# Experiment: cell-based or functional assay
# Remark: another data set of the same source
row,Binder,Fold Activation of Latent TGF-β over Baseline (soft agar NRK colony formation) [fold over baseline]
1,KRFK [KRFK (SEQ ID NO:5)],2
2,QRFK [QRFK (SEQ ID NO:8)],2
3,HRFK [HRFK (SEQ ID NO:6)],2
4,KKFK [KKFK (SEQ ID NO:32)],2.2
